The record followed here is patent EP4613763A1 (Chuang, Woei-jer, dated 2025).

As usually defined, the IC50 is the midpoint of a concentration-inhibition curve. Low readings indicate inhibition by little substance, high ones a need for much substance.

Positions count from the first letter of the chain named.

B1: protein C7 (designed binder)
chain: VSDVPRDLEVVAATPTSLLISWRHPHFPTRYYRITYGETGGNSPVQEFTVPLQPPTATISGLKPGVDYTITVYAVTDGRNGRLLSIPISINYRT
B2: C7-SL4-His (designed binder, not shown: small tags and cut ends)
chain: B1 chain with D67C, N91C
modifications: Designed disulfide bond between Cys67 and Cys91.
notes: His-tagged C7 variant with one introduced disulfide bond
B3: C7-SL1-His (designed binder, not shown: small tags and cut ends)
chain: B1 chain with L8C, S89C
modifications: Designed disulfide bond between Cys8 and Cys89.
notes: as for B2
B4: C7-SS1-His (designed binder, not shown: small tags and cut ends)
chain: B1 chain with L19C, T58C
modifications: Designed disulfide bond between Cys19 and Cys58.
notes: as for B2
B5: C7-LL3-His (designed binder, not shown: small tags and cut ends)
chain: B1 chain with T39C, D67C
modifications: Designed disulfide bond between Cys39 and Cys67.
notes: as for B2
B6: C7-SL1-LL3-His (designed binder, not shown: small tags and cut ends)
chain: B1 chain with L8C, T39C, D67C, S89C
modifications: Designed disulfide bonds Cys8-Cys89 and Cys39-Cys67.
notes: His-tagged C7 variant with two introduced disulfide bonds
B7: C7-SL1-LL2-His (designed binder, not shown: small tags and cut ends)
chain: B1 chain with L8C, S17C, S60C, S89C
modifications: Designed disulfide bonds Cys8-Cys89 and Cys17-Cys60.
notes: as for B6
B8: C7-SL2-His (designed binder)
chain: B1 chain with T35C, V45C
modifications: Designed intramolecular disulfide bond Cys35-Cys45 (printed as T36/V46 in the Met-included numbering).
notes: His-tagged C7 variant with one introduced disulfide bond; not shown: N-terminal Met and C-terminal His tag of the expressed construct
B9: C7-LL4-His (designed binder, not shown: small tags and cut ends)
chain: B1 chain with K63C, V66C
modifications: Designed disulfide bond between Cys63 and Cys66.
notes: as for B2
B10: C7-SL3-His (designed binder)
chain: B1 chain with G37C, V45C
modifications: Designed intramolecular disulfide bond Cys37-Cys45 (printed as G38/V46 in the Met-included numbering).
notes: as for B8
B11: C7-LL2-His (designed binder, not shown: small tags and cut ends)
chain: B1 chain with S17C, S60C
modifications: Designed disulfide bond between Cys17 and Cys60.
notes: as for B2

The target in this assay is T1, vascular endothelial growth factor receptor 2 (UniProt P35968 20-764, limits assumed).
T1 construct: also called VEGFR2; kinase insert domain receptor
T1 sequence (P35968 20-764 limits assumed): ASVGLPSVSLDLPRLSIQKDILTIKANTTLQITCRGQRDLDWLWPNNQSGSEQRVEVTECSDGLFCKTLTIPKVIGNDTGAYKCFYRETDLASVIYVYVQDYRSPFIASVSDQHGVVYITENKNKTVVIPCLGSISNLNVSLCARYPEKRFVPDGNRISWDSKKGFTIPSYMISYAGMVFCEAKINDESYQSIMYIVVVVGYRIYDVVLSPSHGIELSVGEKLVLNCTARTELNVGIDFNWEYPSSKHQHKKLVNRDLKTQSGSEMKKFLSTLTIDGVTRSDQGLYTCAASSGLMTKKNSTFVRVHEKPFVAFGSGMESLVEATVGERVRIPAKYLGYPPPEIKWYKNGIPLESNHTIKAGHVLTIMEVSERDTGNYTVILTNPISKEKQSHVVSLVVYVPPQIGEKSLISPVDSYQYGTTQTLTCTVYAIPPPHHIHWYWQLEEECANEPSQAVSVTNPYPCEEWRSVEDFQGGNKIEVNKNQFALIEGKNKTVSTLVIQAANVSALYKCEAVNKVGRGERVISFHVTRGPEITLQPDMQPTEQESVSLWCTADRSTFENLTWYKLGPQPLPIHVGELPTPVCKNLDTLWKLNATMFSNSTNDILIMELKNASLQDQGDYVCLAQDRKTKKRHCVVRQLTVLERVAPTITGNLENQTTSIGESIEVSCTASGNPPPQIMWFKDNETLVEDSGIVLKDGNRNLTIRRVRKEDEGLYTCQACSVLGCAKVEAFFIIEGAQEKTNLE
The assay can be described thus: ELISA, binding affinity to VEGFR2. For orientation: ELISA stands for enzyme-linked immunosorbent assay.
In turn, B1 registered an IC50 of 16.8 nM.

In turn, B2 had a half-maximal inhibitory concentration (IC50) of 18.5 nM.

With B3, the IC50 turned out to be 17.6 nM.

The molecule B4 yielded an IC50 of 17.5 nM.

B5 showed an IC50 of 9.8 nM.

Molecule B6 registered an IC50 of 19.2 nM.

B7 showed an IC50 of 12.8 nM.

Regarding B8, the IC50 came out at 17.1 nM.

Turning to B9, the IC50 was determined as 16.6 nM.

With B10, the half-maximal inhibitory concentration (IC50) is 21.3 nM.

Molecule B11 showed an IC50 of 18.9 nM.
